The chains are these.
T1: ACAD9WT (mature ACAD9, residues 38-621) (human, UniProt Q9H845 38-621)
T1 construct: human ACAD9, mature form, residues 38-621; E. coli codon-optimised synthetic gene; Cloned into pET-21d(+); Plasmid details are in Supplementary Data 1; source: E. coli C43 (DE3), purified (HisTrap, dialysed in SEC buffer)
T1 sequence (looked up): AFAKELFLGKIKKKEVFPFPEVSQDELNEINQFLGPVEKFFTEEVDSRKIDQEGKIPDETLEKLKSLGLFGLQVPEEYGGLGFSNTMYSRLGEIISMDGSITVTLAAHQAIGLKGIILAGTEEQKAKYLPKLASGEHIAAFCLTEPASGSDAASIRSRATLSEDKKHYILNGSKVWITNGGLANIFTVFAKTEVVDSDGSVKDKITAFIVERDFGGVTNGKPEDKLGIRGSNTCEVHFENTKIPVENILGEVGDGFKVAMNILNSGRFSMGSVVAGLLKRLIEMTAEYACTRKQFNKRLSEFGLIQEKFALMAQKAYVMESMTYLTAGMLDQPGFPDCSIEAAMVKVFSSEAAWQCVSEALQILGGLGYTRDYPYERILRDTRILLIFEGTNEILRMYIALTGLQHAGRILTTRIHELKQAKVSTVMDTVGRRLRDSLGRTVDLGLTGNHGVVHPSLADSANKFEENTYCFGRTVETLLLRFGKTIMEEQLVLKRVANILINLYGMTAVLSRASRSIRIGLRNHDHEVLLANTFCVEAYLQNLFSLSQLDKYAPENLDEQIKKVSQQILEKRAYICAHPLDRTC

B1: ECSIT_(CTER-W324A) (domain or fragment, human, UniProt Q9BQ95 221-431, looked up)
chain: QDPVELAMFGLRHMEPDLSARVTIYQVPLPKDSTGAADPPQPHIVGIQSPDQQAALARHNPARPVFVEGPFSLWLRNKCVYYHILRADLLPPEEREVEETPEEANLYYPMQLDLEYVRSGWDNYEFDINEVEEGPVFAMCMAGAHDQATMAKWIQGLQETNPTLAQIPVVFRLAGSTRELQTSSAGLEEPPLPEDHQEEDDNLQRQQQGQS
notes: human ECSIT, residues 221-431, W324A; also called ECSIT-W324A; ECSIT_(W324A); source: E. coli BL21 Star (DE3), purified (HisTrap, SEC)
B2: ECSIT_(CTER-Y327A) (domain or fragment, human, UniProt Q9BQ95 221-431, looked up)
chain: B1 chain with A104W, Y107A
notes: human ECSIT, residues 221-431, Y327A; also called ECSIT_(Y327A); source: E. coli BL21 Star (DE3), purified (HisTrap, SEC)
B3: ECSIT_(CTER-Y327F) (domain or fragment, human, UniProt Q9BQ95 221-431, looked up)
chain: B1 chain with A104W, Y107F
notes: human ECSIT, residues 221-431, Y327F; also called ECSIT_(Y327F); source: E. coli BL21 Star (DE3), purified (HisTrap, SEC)
B4: ECSIT_(CTER-Y328A) (domain or fragment, human, UniProt Q9BQ95 221-431, looked up)
chain: B1 chain with A104W, Y108A
notes: human ECSIT, residues 221-431, Y328A; also called ECSIT_(Y328A); source: E. coli BL21 Star (DE3), purified (HisTrap, SEC)
B5: ECSIT_(CTER-Y328F) (domain or fragment, human, UniProt Q9BQ95 221-431, looked up)
chain: B1 chain with A104W, Y108F
notes: human ECSIT, residues 221-431, Y328F; also called ECSIT_(Y328F); source: E. coli BL21 Star (DE3), purified (HisTrap, SEC)
B6: VLCADWT (very long chain acyl-CoA dehydrogenase, res. 72-655) (enzyme, human, UniProt P49748 72-655, looked up)
chain: SFAVGMFKGQLTTDQVFPYPSVLNEEQTQFLKELVEPVSRFFEEVNDPAKNDALEMVEETTWQGLKELGAFGLQVPSELGGVGLCNTQYARLVEIVGMHDLGVGITLGAHQSIGFKGILLFGTKAQKEKYLPKLASGETVAAFCLTEPSSGSDAASIRTSAVPSPCGKYYTLNGSKLWISNGGLADIFTVFAKTPVTDPATGAVKEKITAFVVERGFGGITHGPPEKKMGIKASNTAEVFFDGVRVPSENVLGEVGSGFKVAMHILNNGRFGMAAALAGTMRGIIAKAVDHATNRTQFGEKIHNFGLIQEKLARMVMLQYVTESMAYMVSANMDQGATDFQIEAAISKIFGSEAAWKVTDECIQIMGGMGFMKEPGVERVLRDLRIFRIFEGTNDILRLFVALQGCMDKGKELSGLGSALKNPFGNAGLLLGEAGKQLRRRAGLGSGLSLSGLVHPELSRSGELAVRALEQFATVVEAKLIKHKKGIVNEQFLLQRLADGAIDLYAMVVVLSRASRSLSEGHPTAQHEKMLCDTWCIEAAARIREGMAALQSDPWQQELYRNFKSISKALVERGGVVTSNPLGF
notes: human very long-chain acyl-CoA dehydrogenase (VLCAD), residues 72-655; plasmid ACADVL from Addgene #38838; VLCAD-related constructs were cloned into pNIC28-BSA; also called ACADVL; source: E. coli Rosetta 2 (DE3), purified (HisTrap, SEC)
B7: ACAD9_(S191A) (enzyme, human, UniProt Q9H845 38-621, looked up)
chain: T1 sequence (looked up) with S154A
notes: human ACAD9, residues 38-621, S191A; One FAD per protomer in the cryo-EM structure; source: E. coli C43 (DE3), purified (HisTrap, dialysed in SEC buffer)
B8: ACAD9_(VLCAD) (enzyme, human, UniProt Q9H845 38-621, looked up)
chain: T1 sequence (looked up) with L364M, L367M, Y369F, T370M
notes: human ACAD9, residues 38-621, residues 401-407 LGGLGYT replaced by the corresponding VLCAD residues 437-443 MGGMGFM; also called ACAD9 mutated to mimic VLCAD; source: E. coli C43 (DE3), purified (HisTrap, dialysed in SEC buffer)
B9: ACAD9_(A184S/SR194TS) (enzyme, human, UniProt Q9H845 38-621, looked up)
chain: T1 sequence (looked up) with A147S, S157T, R158S
notes: human ACAD9, residues 38-621, A184S and SR194TS combined (mimics the VLCAD gatekeeper loop); source: E. coli C43 (DE3), purified (HisTrap, dialysed in SEC buffer)

Positions count from the first letter of the chain named. In names and notes the source's numbering stands.

This is an account of results in paper PMC10716376, “The assembly of the Mitochondrial Complex I Assembly complex uncovers a redox pathway coordination” (Nature Communications, 2023).

The first data set addresses VLCAD_(ACAD9) (human) (UniProt P49748). The data set can be described thus: mass photometry; ACAD9 (or VLCAD) at 20-50 nM in 25 mM HEPES pH 7.5, 250 mM NaCl, or diluted in 4.8 uM ECSIT solution for complex formation.
Details: not given
Take “VLCAD_(ACAD9) (from UniProt P49748 72-655) (enzyme)”: the stoichiometry N (as a rule, the number of molecules, sites or subunits per partner or assembly) came to 2.

The next data set addresses T1, ACAD9WT (mature ACAD9, residues 38-621). Kind of data set: dynamic light scattering; 278 K, protein at 1-2 mg/ml; complexes reconstituted at molar ratio 1:1.25. To be noted: both partners purified.
Regarding B1, the binding result was “binds”.
As to B2, the binding result was “binds”.
Regarding B3, the binding result is given as “binds”.
As to B4, the binding result is “binds”.
As to B5, the binding result is on record as “binds”.

Another data set deals with the molecule itself. Kind of data set: mass photometry; ACAD9 (or VLCAD) at 20-50 nM in 25 mM HEPES pH 7.5, 250 mM NaCl, or diluted in 4.8 uM ECSIT solution for complex formation.
Details: not given
In the case of B6, the “stoichiometry N” value was found to be 2.
In the case of B7, the “stoichiometry N” value came to 2.
For B8, the “stoichiometry N” value is 2.
For B9, the “stoichiometry N” value is 2.
